B1: Nuclear factor NF-kappa-B p105 subunit (Homo sapiens), P19838-1 (parent)
chain: MAEDDPYLGRPEQMFHLDPSLTHTIFNPEVFQPQMALPTDGPYLQILEQPKQRGFRFRYVCEGPSHGGLPGASSEKNKKSYPQVKICNYVGPAKVIVQLVTNGKNIHLHAHSLVGKHCEDGICTVTAGPKDMVVGFANLGILHVTKKKVFETLEARMTEACIRGYNPGLLVHPDLAYLQAEGGGDRQLGDREKELIRQAALQQTKEMDLSVVRLMFTAFLPDSTGSFTRRLEPVVSDAIYDSKAPNASNLKIVRMDRTAGCVTGGEEIYLLCDKVQKDDIQIRFYEEEENGGVWEGFGDFSPTDVHRQFAIVFKTPKYKDINITKPASVFVQLRRKSDLETSEPKPFLYYPEIKDKEEVQRKRQKLMPNFSDSFGGGSGAGAGGGGMFGSGGGGGGTGSTGPGYSFPHYGFPTYGGITFHPGTTKSNAGMKHGTMDTESKKDPEGCDKSDDKNTVNLFGKVIETTEQDQEPSEATVGNGEVTLTYATGTKEESAGVQDNLFLEKAMQLAKRHANALFDYAVTGDVKMLLAVQRHLTAVQDENGDSVLHLAIIHLHSQLVRDLLEVTSGLISDDIINMRNDLYQTPLHLAVITKQEDVVEDLLRAGADLSLLDRLGNSVLHLAAKEGHDKVLSILLKHKKAALLLDHPNGDGLNAIHLAMMSNSLPCLLLLVAAGADVNAQEQKSGRTALHLAVEHDNISLAGCLLLEGDAHVDSTTYDGTTPLHIAAGRGSTRLAALLKAAGADPLVENFEPLYDLDDSWENAGEDEGVVPGTTPLDMATSWQVFDILNGKPYEPEFTSDDLLAQGDMKQLAEDVKLQLYKLLEIPDPDKNWATLAQKLGLGILNNAFRLSPAPSKTLMDNYEVSGGTVRELVEALRQMGYTEAIEVIQAASSPVKTTSQAHSLPLSPASTRQQIDELRDSDSVCDSGVETSFRKLSFTESLTSGASLLTLNKMPHDYGQEGPLEGKI
partner: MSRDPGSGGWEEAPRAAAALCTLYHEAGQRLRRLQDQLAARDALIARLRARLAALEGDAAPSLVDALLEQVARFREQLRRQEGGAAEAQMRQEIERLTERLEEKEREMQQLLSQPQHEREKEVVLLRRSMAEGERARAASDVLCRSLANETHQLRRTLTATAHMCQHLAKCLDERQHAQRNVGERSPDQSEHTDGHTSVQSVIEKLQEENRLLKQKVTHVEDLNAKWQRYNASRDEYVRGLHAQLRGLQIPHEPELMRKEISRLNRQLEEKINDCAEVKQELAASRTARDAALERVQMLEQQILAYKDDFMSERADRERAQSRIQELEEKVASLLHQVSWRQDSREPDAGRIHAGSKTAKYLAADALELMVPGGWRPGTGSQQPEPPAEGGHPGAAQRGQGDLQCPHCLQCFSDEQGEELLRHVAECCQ

This experiment covers variants of B1. The conditions noted are these: with tnip2_human TNIP2, Q8NFZ5.
Turning to L841A, the “effect of a mutation on the interaction” value was “disrupting interaction”.

Source of the values: IntAct's records for PubMed 15169888.
